ATPase activity of TerL^P74-26 upon mixing with gp83, no DNA present and stoichiometry N data for one substance are collected here from doi:10.1101/851345.

Assay [1] addresses TerL^P74-26, large terminase of bacteriophage P74-26 (bacteriophage P74-26).
Assay [2] has as its target TerS^P74-26, small terminase of the thermophilic bacteriophage P74-26 (gp83) (bacteriophage P74-26). In words: SEC-MALS. For orientation: SEC sorts molecules by how far they enter the pores of the column.

In assay [1], “TerS^P74-26, small terminase of the thermophilic bacteriophage P74-26 (gp83) (natural protein)” registered an ATPase activity of TerL^P74-26 upon mixing with gp83, no DNA present of 4.4 fold. Besides, the stoichiometry N in assay [2] amounted to 9.

In general, stoichiometry N refers to a count of units in the complex or per binding partner.
